From patent publication US20250092426, “CAS ENDONUCLEASES AND RELATED METHODS” (Flagship Pioneering Innovations VII, LLC, published 2025) come the findings set out here.

The data set deals with T1, CasEnd-12 (synthetic construct).
T1 chain: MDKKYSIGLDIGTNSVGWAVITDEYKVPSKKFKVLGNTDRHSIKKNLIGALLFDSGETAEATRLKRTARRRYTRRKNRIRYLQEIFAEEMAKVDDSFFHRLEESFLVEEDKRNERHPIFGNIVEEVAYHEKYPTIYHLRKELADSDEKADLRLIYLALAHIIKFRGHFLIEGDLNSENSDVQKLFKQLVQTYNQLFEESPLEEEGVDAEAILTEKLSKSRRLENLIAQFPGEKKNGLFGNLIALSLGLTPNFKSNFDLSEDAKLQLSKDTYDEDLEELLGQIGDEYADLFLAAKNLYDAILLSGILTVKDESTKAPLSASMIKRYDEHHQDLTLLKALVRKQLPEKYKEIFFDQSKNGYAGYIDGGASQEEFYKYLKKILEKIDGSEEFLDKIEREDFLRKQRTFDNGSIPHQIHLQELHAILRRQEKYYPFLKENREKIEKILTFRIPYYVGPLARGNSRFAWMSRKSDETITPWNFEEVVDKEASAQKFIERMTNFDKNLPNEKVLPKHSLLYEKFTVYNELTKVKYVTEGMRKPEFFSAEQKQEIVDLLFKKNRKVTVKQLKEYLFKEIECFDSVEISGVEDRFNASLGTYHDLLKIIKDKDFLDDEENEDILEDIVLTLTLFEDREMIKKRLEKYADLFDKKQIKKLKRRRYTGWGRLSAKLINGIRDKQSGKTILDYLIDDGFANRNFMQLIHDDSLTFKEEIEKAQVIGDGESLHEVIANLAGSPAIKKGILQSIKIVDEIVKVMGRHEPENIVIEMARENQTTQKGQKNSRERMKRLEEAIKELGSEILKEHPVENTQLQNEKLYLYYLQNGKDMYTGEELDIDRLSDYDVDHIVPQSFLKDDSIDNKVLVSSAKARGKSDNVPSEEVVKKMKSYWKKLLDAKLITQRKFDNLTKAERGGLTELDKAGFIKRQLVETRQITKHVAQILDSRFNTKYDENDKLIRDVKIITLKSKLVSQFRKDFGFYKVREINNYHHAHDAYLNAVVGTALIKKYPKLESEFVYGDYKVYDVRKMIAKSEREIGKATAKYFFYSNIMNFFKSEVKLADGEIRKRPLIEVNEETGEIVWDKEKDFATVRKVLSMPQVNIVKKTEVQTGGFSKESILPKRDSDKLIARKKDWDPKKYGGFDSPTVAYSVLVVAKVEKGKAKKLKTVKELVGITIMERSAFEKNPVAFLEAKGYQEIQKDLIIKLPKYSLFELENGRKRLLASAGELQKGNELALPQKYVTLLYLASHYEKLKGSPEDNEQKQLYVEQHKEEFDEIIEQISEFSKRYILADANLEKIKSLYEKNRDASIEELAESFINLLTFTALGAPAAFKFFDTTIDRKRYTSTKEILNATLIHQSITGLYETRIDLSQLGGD
Nature of the data set: cell_activity; +++; HEK293T; PAM not stated. How it is done: The ability of the candidate endonucleases, including endonucleases 1-38 (CasEnds 1-38) (set forth in Table 1 and SEQ ID NOS: 1-38, respectively), to mediate target nucleic acid editing was assessed utilizing a blue fluorescent protein (BFP) to green fluorescent protein (GFP) conversion assay, wherein programmed nucleotide editing of the BFP gene was measured by the expression of GFP (signifying the conversion of […] via the programmed nucleotide edit in the BFP gene). The conversion assay was conducted utilizing the reverse transcriptase-based system (as described above in Example 2) comprising a template RNA (designed to convert BFP to GFP) and a fusion protein comprising a retroviral reverse transcriptase and the individual subject Cas endonuclease. The amino acid sequence of the base portion of the fusion protein (without the individual subject Cas endonuclease) is set forth in Table 7 (SEQ ID NO: 43).
Briefly, 200 ng of plasmid DNA encoding the subject fusion protein (containing one of the subject CasEnds) and 200 ng of template RNA (in plasmid format) were added to 25 μL SF buffer containing 250,000 HEK293T BFP-expressing cells. Nucleofection was mediated utilizing program DS-150. The day of nucleofection was marked as day 0. At day 4, the cells were harvested and analyzed by flow cytometry to assess the level of BFP and GFP expression in HEK293T cells. Cells having GFP signal were defined as having undergone a successful editing event, and the percent of cells that were GFP+ on day 4 was used to determine the performance of each Cas endonuclease.

B1: BFP-to-GFP template RNA ; BFP reporter protospacer (ssRNA ; dsDNA)
RNA: GCCGAAGCACUGCACGCCGUGUUUUAGAGCUAGAAAUAGCAAGUUAAAAUAAGGCUAGUCCGUUAUCAACUUGAAAAAGUGGCACCGAGUCGGUGCACCCUGACGUACGGCGUGCAGUGCUU
DNA 1: GCCGAAGCACTGCACGCCGT
DNA 2: ACGGCGTGCAGTGCTTCGGC
Regarding B1, the activity was ≥ 100 % of reference.
